Key:
RecA (RecAWT) = biological target: T1, RecA (RecAWT) (Bacillus subtilis, UniProt P16971); test: malachite green phosphate release; kinetic analysis of ATP binding; assay type: biochemical; details: with salmon sperm ssDNA, Mg2+, pH 7.4, 37 C
T1 construct: 6xHis tag kept (text says C-terminal, also written 6xHis-RecA); pET28a, E. coli BL21(DE3); about 38 kDa monomer
T1 sequence (P16971 11-348): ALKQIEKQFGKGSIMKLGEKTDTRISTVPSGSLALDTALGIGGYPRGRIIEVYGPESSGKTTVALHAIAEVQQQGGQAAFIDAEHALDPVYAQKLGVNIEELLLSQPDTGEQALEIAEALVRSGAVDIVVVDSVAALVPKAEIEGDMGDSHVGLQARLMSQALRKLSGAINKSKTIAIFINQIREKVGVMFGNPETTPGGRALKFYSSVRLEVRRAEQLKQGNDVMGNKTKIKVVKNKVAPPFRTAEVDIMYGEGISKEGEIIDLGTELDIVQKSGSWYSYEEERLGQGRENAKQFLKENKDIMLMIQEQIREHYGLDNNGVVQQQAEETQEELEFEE

[1] = biological target: Bacillus subtilis RecA K70A Walker A mutant, hexa-histidine fusion protein (B. subtilis) (UniProt P16971); test: mass photometry; protein alone; 2 uL sample added to 18 uL PBS pH 7.4, room temperature; 137 mM salt; poly-L-lysine coated coverslips
[2] = biological target: Bacillus subtilis RecA K70R Walker A mutant, hexa-histidine fusion protein (B. subtilis) (UniProt P16971); test: mass photometry; protein mixed with 32 nt ssDNA oligonucleotides and 1 mmol/l ATP, incubated 10 min at 37°C; measured in PBS pH 7.4
[3] = biological target: Bacillus subtilis RecA K70R Walker A mutant, hexa-histidine fusion protein (B. subtilis) (UniProt P16971); test: mass photometry; protein alone; 2 uL sample added to 18 uL PBS pH 7.4, room temperature; 137 mM salt; poly-L-lysine coated coverslips
[4] = biological target: Bacillus subtilis RecA, wild type, hexa-histidine fusion protein (B. subtilis) (UniProt P16971); test: as above

Nc1ncnc2c1ncn2[C@@H]1O[C@H](COP(=O)(O)OP(=O)(O)OP(=O)(O)O)[C@@H](O)[C@H]1O [ATP]
malachite green phosphate release; kinetic analysis of ATP binding (RecA (RecAWT)): activity of wild type RecA comparable to that of E. coli RecA

Bacillus subtilis RecA K70A Walker A mutant, hexa-histidine fusion protein (from UniProt P16971 11-348) (natural protein)
stoichiometry N [1]: 2

Bacillus subtilis RecA K70R Walker A mutant, hexa-histidine fusion protein (from UniProt P16971 11-348) (natural protein)
stoichiometry N [2]: 2
stoichiometry N [3]: 2

Bacillus subtilis RecA, wild type, hexa-histidine fusion protein (from UniProt P16971 11-348) (natural protein)
stoichiometry N [4]: 2

Source: article PMC9769622, “ATPase Activity of Bacillus subtilis RecA Affects the Dynamic Formation of RecA Filaments at DNA Double Strand Breaks” (mSphere, 2022)
